Reference: article PMC3974700, “SDA, a DNA Aptamer Inhibiting E- and P-Selectin Mediated Adhesion of Cancer and Leukemia Cells, the First and Pivotal Step in Transendothelial Migration during Metastasis Formation”

T1: E-selectin/IgG-Fc chimera (human, UniProt P16581 22-556)
T1 sequence: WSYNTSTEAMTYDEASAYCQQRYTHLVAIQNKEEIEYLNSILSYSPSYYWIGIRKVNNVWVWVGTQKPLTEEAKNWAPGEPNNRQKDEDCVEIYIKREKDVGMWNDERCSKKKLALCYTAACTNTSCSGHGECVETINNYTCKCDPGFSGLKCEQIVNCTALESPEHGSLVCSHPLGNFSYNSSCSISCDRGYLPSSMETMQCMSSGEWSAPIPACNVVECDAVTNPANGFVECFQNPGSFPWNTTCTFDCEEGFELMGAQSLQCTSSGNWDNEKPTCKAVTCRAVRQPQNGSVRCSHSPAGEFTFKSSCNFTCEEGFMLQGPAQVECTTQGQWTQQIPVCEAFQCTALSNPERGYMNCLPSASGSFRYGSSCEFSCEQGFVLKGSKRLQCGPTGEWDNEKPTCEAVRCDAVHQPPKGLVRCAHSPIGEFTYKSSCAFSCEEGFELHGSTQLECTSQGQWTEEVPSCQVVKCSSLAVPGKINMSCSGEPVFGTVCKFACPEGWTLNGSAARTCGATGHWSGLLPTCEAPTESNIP

B1: control DNA (ssDNA)
DNA: GCCTGTTGTGAGCCTCCTAACGAGGAGTGGGCTAAAGGTATGTTGTGGGTTTGGTTCCATGCTTATTCTTGTCTCCC
B2: SDA (ssDNA)
DNA: GCCTGTTGTGAGCCTCCTAACGATTTGGATTTGGGGTGGAGGGTATGGTTTGTGCTGGCGTTCTCATTTCCCATGCTTATTCTTGTCTCCC

Assays:
[1] = target: P-selectin/IgG-Fc chimera (human, UniProt P16109 42-771); experiment: filter binding; 3 mM Mg2+; Selection buffer: 3 mM MgCl2 in PBS, pH 7.5 (with 1 mg/mL BSA as described for SELEX beads); room temperature, 30 min; DNA <1 nM, protein 0-1 uM; settings: protein: commercial; tags: IgG-Fc fusion; chain copies: 2; label: 32P (T4 polynucleotide kinase)
Chain of P-selectin/IgG-Fc chimera (P16109 42-771, change not shown): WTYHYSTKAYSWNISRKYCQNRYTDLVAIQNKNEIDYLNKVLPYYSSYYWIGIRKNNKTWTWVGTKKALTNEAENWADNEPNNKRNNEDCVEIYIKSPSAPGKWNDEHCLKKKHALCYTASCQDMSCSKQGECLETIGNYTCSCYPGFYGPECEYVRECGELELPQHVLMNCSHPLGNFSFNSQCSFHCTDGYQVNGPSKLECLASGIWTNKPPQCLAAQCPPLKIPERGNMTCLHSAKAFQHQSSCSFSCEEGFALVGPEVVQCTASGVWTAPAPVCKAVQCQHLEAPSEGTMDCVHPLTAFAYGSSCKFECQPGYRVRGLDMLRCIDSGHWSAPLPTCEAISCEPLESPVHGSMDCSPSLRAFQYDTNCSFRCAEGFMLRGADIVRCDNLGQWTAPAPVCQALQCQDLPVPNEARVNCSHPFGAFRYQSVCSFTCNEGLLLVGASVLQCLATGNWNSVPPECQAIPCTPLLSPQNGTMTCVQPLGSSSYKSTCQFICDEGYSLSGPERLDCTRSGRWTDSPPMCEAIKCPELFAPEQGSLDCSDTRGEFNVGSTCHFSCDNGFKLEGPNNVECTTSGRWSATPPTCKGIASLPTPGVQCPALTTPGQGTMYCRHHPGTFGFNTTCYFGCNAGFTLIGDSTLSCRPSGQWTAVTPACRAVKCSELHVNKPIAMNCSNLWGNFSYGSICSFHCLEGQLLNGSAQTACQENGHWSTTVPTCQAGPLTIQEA

[2] = target: T1, E-selectin/IgG-Fc chimera; experiment: as above; settings: protein: commercial; tags: IgG-Fc fusion; chain copies: 2; label: 32P (T4 polynucleotide kinase)

Binder | binding result [1] | binding result [2] | Kd [1] | Kd [2]
B1 | no binding | no binding | – | –
B2 | – | – | 95 ± 18 nM | 98 ± 16 nM
